# Assay results from patent US20250134683A1, “MICRO-NANO MEDICAL STENT FOR DIRECTIONAL, QUANTITATIVE AND TIMED RELEASE OF DRUG AND PREPARATION METHOD THEREOF” (GUANGDONG UNIVERSITY OF TECHNOLOGY, priority 2023, published 2025).
# B1: human epidermal growth factor: growth factor gel loaded in PVA core layer fiber (protein, UniProt P01133 23-1207, looked up)
# Pro-epidermal growth factor: PQHWSCPEGTLAGNGNSTCVGPAPFLIFSHGNSIFRIDTEGTNYEQLVVDAGVSVIMDFHYNEKRIYWVDLERQLLQRVFLNGSRQERVCNIEKNVSGMAINWINEEVIWSNQQEGIITVTDMKGNNSHILLSALKYPANVAVDPVERFIFWSSEVAGSLYRADLDGVGVKALLETSEKITAVSLDVLDKRLFWIQYNREGSNSLICSCDYDGGSVHISKHPTQHNLFAMSLFGDRIFYSTWKMKTIWIANKHTGKDMVRINLHSSFVPLGELKVVHPLAQPKAEDDTWEPEQKLCKLRKGNCSSTVCGQDLQSHLCMCAEGYALSRDRKYCEDVNECAFWNHGCTLGCKNTPGSYYCTCPVGFVLLPDGKRCHQLVSCPRNVSECSHDCVLTSEGPLCFCPEGSVLERDGKTCSGCSSPDNGGCSQLCVPLSPVSWECDCFPGYDLQLDEKSCAASGPQPFLLFANSQDIRHMHFDGTDYGTLLSQQMGMVYALDHDPVENKIYFAHTALKWIERANMDGSQRERLIEEGVDVPEGLAVDWIGRRFYWTDRGKSLIGRSDLNGKRSKIITKENISQPRGIAVHPMAKRLFWTDTGINPRIESSSLQGLGRLVIASSDLIWPSGITIDFLTDKLYWCDAKQSVIEMANLDGSKRRRLTQNDVGHPFAVAVFEDYVWFSDWAMPSVMRVNKRTGKDRVRLQGSMLKPSSLVVVHPLAKPGADPCLYQNGGCEHICKKRLGTAWCSCREGFMKASDGKTCLALDGHQLLAGGEVDLKNQVTPLDILSKTRVSEDNITESQHMLVAEIMVSDQDDCAPVGCSMYARCISEGEDATCQCLKGFAGDGKLCSDIDECEMGVPVCPPASSKCINTEGGYVCRCSEGYQGDGIHCLDIDECQLGEHSCGENASCTNTEGGYTCMCAGRLSEPGLICPDSTPPPHLREDDHHYSVRNSDSECPLSHDGYCLHDGVCMYIEALDKYACNCVVGYIGERCQYRDLKWWELRHAGHGQQQKVIVVAVCVVVLVMLLLLSLWGAHYYRTQKLLSKNPKNPYEESSRDVRSRRPADTEDGMSSCPQPWFVVIKEHQDLKNGGQPVAGEDGQAADGSMQPTSWRQEPQLCGMGTEQGCWIPVSSDKGSCPQVMERSFHMPSYGTQTLEGGVEKPHSLLSANPLWQQRALDPPHQMELTQ
# modifications: Pro-epidermal growth factor
# notes: growth factor gel loaded in PVA core layer fiber
# Assay: sequential release of drugs from core-shell nano-disordered electrospun fiber structure
# Type: physicochemical
# Details: composite electrospun layer of Example 1; roxithromycin in shell layer fiber, human epidermal growth factor in core layer fiber
# Description: Moreover, the transmission electron microscopic image of the core-shell nano-disordered electrospun fiber structure in the composite electrospun layer prepared in Example 1 is shown in FIG. 3. […] The coaxial electrospinning realizes the sequential and timed release of the two drugs in the same electrospun layer. Further, the electrospun layer can be prepared by triaxial electrospinning or multiaxial electrospinning process, which has a core-shell structure of three core layers or multi-core layers, thereby achieving the sequential and timed release of three or more drugs in the same electrospun layer.
molecule,measurement,value
B1,order of drug release from core-shell fiber,subsequently released
